Reference: article PMC11359615, “Evaluation of ABD-Linked RM26 Conjugates for GRPR-Targeted Drug Delivery” (ACS Omega, 2024)
Non-standard residues stand in square brackets, D forms with d. maleimide‑DOTA = DOTA attached via maleimide to the Cys thiol; Sta = CC(C)C[C@H](N)[C@@H](O)CC(=O)O; PEG4 = NCCOCCOCCOCCOCCC(=O)O

B1: ABD-Cys14 control (recombinant ABD035 with N-terminal MEDANS, a Cys, a C-terminal Sortase A recognition sequence and a His-tag) (designed binder)
chain: MEDANSLAEAKVLANRELDKYGVSDFYCRLINKAKTVEGVEALKLHILAALPVDGSGSGSLPETGG
notes: also called ABD control; MEDANS-ABD; source: E. coli BL21 (DE3)*, purified (IMAC, HisPur Cobalt resin)
B2: ABD (albumin-binding domain; recombinant ABD035 with N-terminal MEDANS, a Cys and a C-terminal Sortase A recognition sequence and His-tag) (designed binder)
chain: B1 chain
notes: also called ABD control; unconjugated ABD; source: E. coli BL21 (DE3)*, purified (IMAC, HisPur Cobalt resin); not shown: His6, C-terminal, kept
B3: ABD-RM26 Gen 2A conjugate (designed binder)
chain: MEDANSLAEAKVLANRELDKYGVSDFYC(maleimide‑DOTA)RLINKAKTVEGVEALKLHILAALPVDGSGSGSLPETGGG[PEG4][dF]QWAVGH[Sta]L-NH2
modifications: numbers in words are those of the source; also: DOTA loaded with 111In in cell assays

How the values were obtained:
human serum albumin [1] = target: T1, human serum albumin (human, UniProt P02768 25-609); test: SPR; Biacore 8K; HSA immobilised on a CM5 chip by amine coupling (1250 RU); constructs at 50, 25, 12.5, 6.25 and 3.125 nM flowed at 30 uL/min in PBS-T (PBS + 0.05% Tween-20, pH 7.4); 150 s association, 3000 s dissociation; 1:1 Langmuir fit; conditions: both partners purified
T1 construct: human serum albumin (HSA), immobilised by amine coupling; also called HSA

human serum albumin [2] = target: T2, human serum albumin (human, UniProt P02768 25-609); test: SPR; Biacore 8K; HSA amine-coupled on CM5 chip (1250 RU); constructs at 50, 25, 12.5, 6.25 and 3.125 nM flowed over at 30 uL/min in PBS-T pH 7.4; 150 s association, 3000 s dissociation; 1:1 Langmuir fit; conditions: both partners purified
T2 construct: human serum albumin; also called HSA

[3] = target: T3, gastrin-releasing peptide receptor (human (endogenous in PC-3), UniProt P30550 1-384); test: radioligand binding; real-time binding kinetics of 111In-labelled conjugates on living GRPR-expressing PC-3 cells; conditions in the Supporting Information; conditions: one partner purified
T3 construct: gastrin-releasing peptide receptor on GRPR-expressing PC-3 cells; also called GRPR; source: endogenous, on living PC-3 cells
T3 sequence (P30550 whole entry): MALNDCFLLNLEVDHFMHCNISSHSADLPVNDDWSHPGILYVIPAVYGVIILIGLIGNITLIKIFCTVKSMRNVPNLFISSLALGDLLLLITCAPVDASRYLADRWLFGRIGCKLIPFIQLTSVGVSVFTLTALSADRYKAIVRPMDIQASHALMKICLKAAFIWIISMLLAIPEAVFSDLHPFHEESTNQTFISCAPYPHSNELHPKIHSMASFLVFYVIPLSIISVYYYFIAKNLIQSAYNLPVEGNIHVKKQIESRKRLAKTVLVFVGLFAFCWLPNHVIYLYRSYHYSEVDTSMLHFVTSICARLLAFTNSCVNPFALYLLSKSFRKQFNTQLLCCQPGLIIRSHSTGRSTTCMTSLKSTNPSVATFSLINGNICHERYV

Row | Binder | koff (human serum albumin [1]) [s⁻¹] | kon (human serum albumin [1]) [M⁻¹ s⁻¹] | Kd (human serum albumin [2]) [nM] | Kd [3] [nM] | koff [3] [s⁻¹] | kon [3] [M⁻¹ s⁻¹]
1 | B1 | 0.00024 | 1.8e+07 | – | – | – | –
2 | B2 | – | – | 0.013 | – | – | –
3 | B3 | – | – | 0.048 | 120 ± 140 | 0.013 | 670000
